According to PMC3895837:

Molecular target: T1, Siglec-5 (Sialic acid-binding Ig-like lectin 5) (human (NB4 AML cell line)) (UniProt O15389)
T1 sequence: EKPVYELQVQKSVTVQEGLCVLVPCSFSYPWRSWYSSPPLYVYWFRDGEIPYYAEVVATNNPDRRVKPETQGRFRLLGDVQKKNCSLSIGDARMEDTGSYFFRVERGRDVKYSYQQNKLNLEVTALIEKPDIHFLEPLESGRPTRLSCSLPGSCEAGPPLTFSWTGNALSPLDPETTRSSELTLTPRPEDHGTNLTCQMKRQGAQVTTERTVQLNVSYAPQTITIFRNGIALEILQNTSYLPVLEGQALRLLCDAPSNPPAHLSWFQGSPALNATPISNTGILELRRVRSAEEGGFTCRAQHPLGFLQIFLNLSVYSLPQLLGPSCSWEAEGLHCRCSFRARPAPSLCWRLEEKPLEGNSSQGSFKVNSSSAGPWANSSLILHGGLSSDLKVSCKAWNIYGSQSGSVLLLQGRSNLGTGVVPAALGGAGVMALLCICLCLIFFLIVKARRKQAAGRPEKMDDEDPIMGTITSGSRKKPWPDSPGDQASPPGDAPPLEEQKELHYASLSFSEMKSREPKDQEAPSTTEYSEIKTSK
Test: flow cytometry on NB4 cells
Details: PBS with 4.5 g/L glucose, 5 mM MgCl2, 0.1 mg/ml yeast tRNA, 1 mg/ml BSA (0.1% NaN3 for flow cytometry), on ice 30 min; pH not stated; JH6 and JH19 (whole-cell …)

## GACGCTTACTCAGGTGTGACTCGAAGGGGTTGGGTGGGTTTATACAAATTAATTAATATTGTATGGTATATTTCGAAGGACGCAGATGAAGTCTC [K19]
  Kd: 0.0124 µM
